T1: human HLA-A*0201 molecule (human, UniProt P04439 25-302 at identity 0.94))
T1 construct: whole, on cells; MHC class I molecule on the surface of T2-0201 cells; also called HLA-A0201 class I molecule
T1 MHC heavy: not shown


How the values were obtained:
[1] = target: T1, human HLA-A*0201 molecule; test: MHC stabilization assay, T2-0201 cells, flow cytometry of surface HLA-A0201 (non-peptide 275.7)
Excerpt: (§1) Next, a binding ability to an HLA-A0201 molecule was actually analyzed by an MHC stabilization assay.

[2] = target: T1, human HLA-A*0201 molecule; test: binding assay (stabilization assay), T2-0201 cells, flow cytometry (non-peptide 84.50)
Excerpt: as §1

[3] = target: T1, human HLA-A*0201 molecule; test: binding assay (stabilization assay), T2-0201 cells, flow cytometry
Excerpt: as §1

[4] = target: T1, human HLA-A*0201 molecule; test: MHC stabilization assay, T2-0201 cells, flow cytometry of surface HLA-A0201
Excerpt: as §1

Row | MFI [1] | MIF [2] | Binder | also measured
1 | 448 | – | LMMYISKMV (Synthesized 9-residue peptide of eEF2; also called candidate peptide number 6) [eEF2394-402 peptide] | –
2 | 449 | – | KLPRTFCQL (Synthesized 9-residue peptide of eEF2; also called candidate peptide number 7) [eEF2284-292 peptide] | –
3 | 665 | – | RLMEPIYLV (Synthesized 9-residue peptide of eEF2; also called candidate peptide number 2) [eEF2739-747 peptide] | –
4 | – | 339 | LLLDPIFKV (Modified-type peptide) [eEF2292-300 2L peptide] | –
5 | – | 319 | LLLDPIFKL (Modified-type peptide) [eEF2292-300 2L9L peptide] | –
6 | – | 275 | LMLDPIFKL (Modified-type peptide) [eEF2292-300 2M9L peptide] | –
7 | 781 | 312 | LILDPIFKV (Synthesized 9-residue peptide of eEF2; also called candidate peptide number 1) [eEF2292-300 peptide] | % MIF increase [3]: 269%; % MFI increase [4]: 183%
8 | – | 313 | LMLDPIFKV (Modified-type peptide) [eEF2292-300 2M peptide] | –
9 | 438 | – | KLVEGLKRL (Synthesized 9-residue peptide of eEF2; also called candidate peptide number 3) [eEF2519-527 peptide] | –
10 | 828 | – | ILTDITKGV (Synthesized 9-residue peptide of eEF2; also called candidate peptide number 5) [eEF2661-669 peptide] | –
11 | 523 | – | YLNEIKDSV (Synthesized 9-residue peptide of eEF2; also called candidate peptide number 4) [eEF2671-679 peptide] | –
